From article PMC8533160, “First Crystal Structure of Bacterial Oligopeptidase B in an Intermediate State: The Roles of the Hinge Region Modification and Spermine” (Biology, 2021)

Experiments:
[1] = test system: N=C(N)NCCCC(NC(=O)c1ccccc1)C(=O)Nc1ccc([N+](=O)[O-])cc1; experiment: purified protein; type: biochemical, Serratia proteamaculans; conditions: 0.1 M Tris-HCl, pH 8.0, 2% DMSO, 25 °C
[2] = test system: N=C(N)NCCC[C@H](NC(=O)OCc1ccccc1)C(=O)N[C@@H](CCCNC(=N)N)C(=O)Nc1ccc([N+](=O)[O-])cc1; experiment: purified protein; type: biochemical, Serratia proteamaculans; conditions: 0.1 M Tris-HCl, pH 8.0, 2% DMSO, 25 °C
[3] = test system: N=C(N)NCCC[C@H](NC(=O)[C@H](CCCCN)NC(=O)OCc1ccccc1)C(=O)Nc1ccc([N+](=O)[O-])cc1; experiment: purified protein; type: biochemical, Serratia proteamaculans; conditions: 0.1 M Tris-HCl, pH 8.0, 2% DMSO, 25 °C
[4] = biological target: T1, PSP (oligopeptidase B from Serratia proteomaculans) (Serratia proteamaculans, UniProt B3VI58); experiment: initial rate of BAPNA hydrolysis; type: biochemical; conditions: read-out: % inhibition at 5 mM
T1 construct: gene opdB; recombinant from E. coli BL21(DE3); 685 residues with tag; 76 kDa; monomer

[5] = biological target: T1, PSP (oligopeptidase B from Serratia proteomaculans); experiment: differential scanning calorimetry; type: binding; conditions: 2 mM spermine; 25 mM Na-phosphate, pH 7.8; 2 mg/mL protein

## PSP (oligopeptidase B from Serratia proteomaculans) (Serratia proteamaculans)
[1]
  Km: 78.1 µM
  kcat: 13.2 s⁻¹
  kcat/Km: 168000 M⁻¹ s⁻¹
[2]
  Km: 4.35 µM
  kcat: 36.4 s⁻¹
  kcat/Km: 8.35e+06 M⁻¹ s⁻¹
[3]
  Km: 20.8 µM
  kcat: 50.8 s⁻¹
  kcat/Km: 2.43e+06 M⁻¹ s⁻¹

## NCCCNCCCCNCCCN [spermine]
[4]
  inhibition at 5000 µM: 20%
[5]
  dTmax: 1 degree
